These results are taken from publication PMC4357710, “TEFM is a potent stimulator of mitochondrial transcription elongation in vitro” (Nucleic Acids Research, 2015).

Series [1] concerns the molecule itself. Briefly: SEC; analytic gel filtration of recombinant TEFM; apparent molecular weight 82 kDa against 37.6 kDa for the chain. In general terms: Size exclusion chromatography separates by hydrodynamic size, large species first.
The target of series [2] is POLRMT (Homo sapiens, UniProt O00411 42-1230). Briefly: MST; 500 uM ATP (one nt incorporation, paused), 10 mM Mg2+, no TEFM; MST: 25 mM Tris-HCl pH 8.0, 100 mM NaCl, 10 mM MgCl2, 10% glycerol, 1 mM DTT, 500 uM ATP, 0.05% Tween-20, 15 nM template, 22 C; footprinting: 25 mM Tris-HCl pH. The settings on record: protein: recombinant; label: 5' Alexa488 on DNA; 8 bp DNA:RNA hybrid; DNA 5' overhang 10 nt; RNA 5' overhang 4 nt (UUUU).
Chain of POLRMT (O00411 42-1230): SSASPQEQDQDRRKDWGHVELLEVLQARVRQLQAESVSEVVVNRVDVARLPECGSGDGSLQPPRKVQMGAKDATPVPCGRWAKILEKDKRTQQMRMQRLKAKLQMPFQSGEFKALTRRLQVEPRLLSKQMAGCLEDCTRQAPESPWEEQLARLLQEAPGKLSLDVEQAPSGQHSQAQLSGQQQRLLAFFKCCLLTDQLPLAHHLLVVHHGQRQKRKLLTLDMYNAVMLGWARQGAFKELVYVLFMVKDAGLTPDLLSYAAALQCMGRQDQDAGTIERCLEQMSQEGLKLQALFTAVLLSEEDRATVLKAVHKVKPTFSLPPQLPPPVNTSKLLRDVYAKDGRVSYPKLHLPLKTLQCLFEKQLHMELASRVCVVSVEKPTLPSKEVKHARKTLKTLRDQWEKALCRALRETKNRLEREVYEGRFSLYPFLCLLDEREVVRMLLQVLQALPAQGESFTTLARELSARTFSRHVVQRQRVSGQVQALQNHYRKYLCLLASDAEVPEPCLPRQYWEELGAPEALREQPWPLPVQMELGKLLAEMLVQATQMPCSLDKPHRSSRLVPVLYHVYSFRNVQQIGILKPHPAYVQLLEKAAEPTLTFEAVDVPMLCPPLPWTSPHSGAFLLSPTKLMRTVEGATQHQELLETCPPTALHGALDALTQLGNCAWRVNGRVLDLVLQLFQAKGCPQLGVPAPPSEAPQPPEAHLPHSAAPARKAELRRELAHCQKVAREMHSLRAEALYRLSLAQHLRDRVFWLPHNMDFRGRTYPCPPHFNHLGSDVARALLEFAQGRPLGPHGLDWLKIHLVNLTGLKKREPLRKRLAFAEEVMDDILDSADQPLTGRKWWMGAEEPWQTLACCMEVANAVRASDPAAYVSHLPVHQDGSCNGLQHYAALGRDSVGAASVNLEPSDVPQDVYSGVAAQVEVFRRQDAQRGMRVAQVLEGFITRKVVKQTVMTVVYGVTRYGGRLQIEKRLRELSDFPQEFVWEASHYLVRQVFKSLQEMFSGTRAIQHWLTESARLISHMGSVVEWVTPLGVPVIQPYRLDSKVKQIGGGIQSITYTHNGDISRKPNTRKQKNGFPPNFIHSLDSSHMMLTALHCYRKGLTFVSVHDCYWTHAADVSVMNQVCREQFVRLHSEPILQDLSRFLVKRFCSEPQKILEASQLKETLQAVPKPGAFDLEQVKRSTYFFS

Series [3] deals with POLRMT;TEFM (Homo sapiens;Homo sapiens, UniProt O00411;Q96QE5 42-1230;36-360, |). In words: MST; POLRMT titrated with 2000 nM TEFM; 500 uM ATP (one nt incorporation, paused), 10 mM Mg2+; MST: 25 mM Tris-HCl pH 8.0, 100 mM NaCl, 10 mM MgCl2, 10% glycerol, 1 mM DTT, 500 uM ATP, 0.05% Tween-20, 15 nM template, 22 C; footprinting: 25 mM Tris-HCl pH. The conditions noted are these: protein: recombinant;recombinant; copies: 1;2; label: 5' Alexa488 on DNA; 8 bp DNA:RNA hybrid; DNA 5' overhang 10 nt; RNA 5' overhang 4 nt (UUUU).
Chain of POLRMT;TEFM (O00411 42-1230, chain 1 of 2, one chain of several): as the sequence (O00411 42-1230) above

B1: human TEFM (mitochondrial transcription elongation factor), residues 36-360 (natural protein, UniProt Q96QE5 36-360, looked up)
chain: KSTTPKKITPNVTFCDENAKEPENALDKLFSSEQQASILHVLNTASTKELEAFRLLRGRRSINIVEHRENFGPFQNLESLMNVPLFKYKSTVQVCNSILCPKTGREKRKSPENRFLRKLLKPDIERERLKAVNSIISIVFGTRRIAWAHLDRKLTVLDWQQSDRWSLMRGIYSSSVYLEEISSIISKMPKADFYVLEKTGLSIQNSSLFPILLHFHIMEAMLYALLNKTFAQDGQHQVLSMNRNAVGKHFELMIGDSRTSGKELVKQFLFDSILKADPRVFFPSDKIVHYRQMFLSTELQRVEELYDSLLQAIAFYELAVFDSQP
modifications: amine-labeled with NT-547 dye (only in the MST with POLRMT)
notes: human TEFM, UniProt Q96QE5, residues 36-360; lacks the predicted mitochondrial targeting signal; The gel filtration used unlabelled protein; the MST used NT-547-labelled protein; also called recombinant TEFM; recombinant human TEFM; source: KRX cells (Promega), purified (Ni-IMAC, TEV cleavage, HiTrap Heparin, Sephacryl S-200 gel filtration); not shown: His6, N-terminal, cleaved
On to B1, for which the stoichiometry N – broadly, the number of molecules, sites or subunits per partner or assembly – in series [1] was found to be 2.

B2: elongation-like DNA:RNA template (18-mer DNA / 12-mer RNA) (DNA:RNA)
DNA: GGGAATGCATGGCGCGGC
RNA: UUUUGCCGCGCC
B2: the Kd (as a rule, a measure of binding affinity in units of concentration) in series [2] stood at 47.8 ± 2.88 nM; in series [3] it was 11.2 ± 1 nM.
